The data set concerns TALEN-AAVS1 (goat AAVS1 TALEN pair; left and right monomers not described separately) (synthetic construct). Kind of data set: cell_activity. The conditions noted are these: cleavage/targeting efficiency in transfected goat fibroblasts; 6 of 8 puromycin-resistant clones correctly targeted with donor; half-sites highlighted only in ….

Sequence “TCCGGCTGTCTCCCTACCAGGGACACGGCAGGGCGGTGGTCAGCTCTCCTGGA (double strand) [goat AAVS1 TALEN target]” had an activity of 2%.

(Values after patent publication US20150033370.)
